Data on one substance can be found in article PMC4142144.

For the assay, the target named is 2CARD^RIG-I(E52A)-CARD^MAVS(KKK) fusion protein, 16 aa linker (human) (UniProt O95786). The assay is described as follows: SEC-MALS.

Regarding “2CARD^RIG-I(E52A)-CARD^MAVS(KKK) fusion protein, 16 aa linker (from UniProt O95786 1-188; Q7Z434 1-97)”, the stoichiometry N came to 4.
